Results published in patent US11325966.

What was measured:
Assay in all cases: cell-based or functional assay
[1] = target: HIV-1 Env of pseudovirus MS208.A1 (HIV-1)
[2] = target: HIV-1 Env of pseudovirus CNE8 (HIV-1)
[3] = target: HIV-1 Env of pseudovirus Ce703010054_2A2 (HIV-1)
[4] = target: HIV-1 Env of pseudovirus Q23.17 (HIV-1)
[5] = target: HIV-1 Env of pseudovirus T257-31 (HIV-1)
[6] = target: HIV-1 Env of pseudovirus Q842.d12 (HIV-1)
[7] = target: HIV-1 Env of pseudovirus Du156.12 (HIV-1)
[8] = target: HIV-1 Env of pseudovirus CAP210.2.00.E8 (HIV-1)
[9] = target: HIV-1 Env of pseudovirus C4118.c09 (HIV-1)
[10] = target: HIV-1 Env of pseudovirus 7030102001E5(Rev-) (HIV-1)
[11] = target: JR-CSF N339A (HIV-1) (UniProt P20871)
[12] = target: HIV-1 Env of pseudovirus AC10.0.29 (HIV-1)
[13] = target: BG505 (T332N) N295A (HIV-1)
[14] = target: JR-CSF I326A (HIV-1) (UniProt P20871)
[15] = target: HIV-1 Env of pseudovirus 6240_08_TA5_4622 (HIV-1)
[16] = target: JR-CSF N392A (HIV-1) (UniProt P20871)
[17] = target: HIV-1 Env of pseudovirus TRO.11 (HIV-1)
[18] = target: 92BR020 D325A (HIV-1)
[19] = target: HIV-1 Env of pseudovirus 3103.v3.c10 (HIV-1)
[20] = target: HIV-1 Env of pseudovirus Ce1086_B2 (HIV-1)
[21] = target: HIV-1 Env of pseudovirus Ce704809221_1B3 (HIV-1)
[22] = target: HIV-1 Env of pseudovirus P1981_C5_3 (HIV-1)
[23] = target: 92BR020 N136A + N156A + N301A (HIV-1)
[24] = target: HIV-1 Env of pseudovirus 263-8 (HIV-1)
[25] = target: HIV-1 Env of pseudovirus Ce1176_A3 (HIV-1)
[26] = target: HIV-1 Env of pseudovirus Q259.d2.17 (HIV-1)
[27] = target: HIV-1 Env of pseudovirus T255-34 (HIV-1)
[28] = target: HIV-1 Env of pseudovirus BF1266.431a (HIV-1)
[29] = target: HIV-1 Env of pseudovirus CNE5 (HIV-1)
[30] = target: HIV-1 Env of pseudovirus CNE30 (HIV-1)
[31] = target: HIV-1 Env of pseudovirus 620345.c01 (HIV-1)
[32] = target: HIV-1 Env of pseudovirus R3265.c06 (HIV-1)
[33] = target: HIV-1 Env of pseudovirus 6535.3 (HIV-1)
[34] = target: HIV-1 Env of pseudovirus 6244_13_B5_4576 (HIV-1)
[35] = target: HIV-1 Env of pseudovirus 3415.v1.c1 (HIV-1)
[36] = target: HIV-1 Env of pseudovirus 928-28 (HIV-1)
[37] = target: HIV-1 Env of pseudovirus CNE53 (HIV-1)
[38] = target: HIV-1 Env of pseudovirus Ce1172_H1 (HIV-1)
[39] = target: 92BR020 H33OA (HIV-1)
[40] = target: HIV-1 Env of pseudovirus 1056_10_TA11_1826 (HIV-1)
[41] = target: HIV-1 Env of pseudovirus Ce0393_C3 (HIV-1)
[42] = target: JR-CSF G324A (HIV-1) (UniProt P20871)

## 354BG8 (antibody)
[1]
  IC50 in TZM-bl assay: > 10 µg/mL
  IC80 in TZM-bl assay: > 10 µg/mL
[2]
  IC50 in TZM-bl assay: > 10 µg/mL
  IC80 in TZM-bl assay: > 10 µg/mL
[3]
  IC50 in TZM-bl assay: > 10 µg/mL
  IC80 in TZM-bl assay: > 10 µg/mL
[4]
  IC50 in TZM-bl assay: 0.005 µg/mL
  IC80 in TZM-bl assay: 0.015 µg/mL
[5]
  IC50 in TZM-bl assay: > 10 µg/mL
  IC80 in TZM-bl assay: > 10 µg/mL
[6]
  IC50 in TZM-bl assay: > 10 µg/mL
  IC80 in TZM-bl assay: > 10 µg/mL
[7]
  IC50 in TZM-bl assay: 0.01 µg/mL
  IC80 in TZM-bl assay: 0.036 µg/mL
[8]
  IC50 in TZM-bl assay: > 10 µg/mL
  IC80 in TZM-bl assay: > 10 µg/mL
[9]
  IC50 in TZM-bl assay: > 10 µg/mL
  IC80 in TZM-bl assay: > 10 µg/mL
[10]
  IC50 in TZM-bl assay: 0.009 µg/mL
  IC80 in TZM-bl assay: 0.019 µg/mL
[11]
  IC50 in TZM-bl assay: 0.01 µg/mL
[12]
  IC50 in TZM-bl assay: 0.015 µg/mL
  IC80 in TZM-bl assay: 0.043 µg/mL
[13]
  IC50 in TZM-bl assay: 0.009 µg/mL
[14]
  IC50 in TZM-bl assay: 0.005 µg/mL
[15]
  IC50 in TZM-bl assay: 0.038 µg/mL
  IC80 in TZM-bl assay: 0.131 µg/mL
[16]
  IC50 in TZM-bl assay: 0.014 µg/mL
[17]
  IC50 in TZM-bl assay: 0.011 µg/mL
  IC80 in TZM-bl assay: 0.039 µg/mL
[18]
  IC50 in TZM-bl assay: 0.006 µg/mL
[19]
  IC50 in TZM-bl assay: 0.024 µg/mL
  IC80 in TZM-bl assay: 0.061 µg/mL
[20]
  IC50 in TZM-bl assay: > 10 µg/mL
  IC80 in TZM-bl assay: > 10 µg/mL
[21]
  IC50 in TZM-bl assay: 0.084 µg/mL
  IC80 in TZM-bl assay: 0.395 µg/mL
[22]
  IC50 in TZM-bl assay: 0.004 µg/mL
  IC80 in TZM-bl assay: 0.013 µg/mL
[23]
  IC50 in TZM-bl assay: 0.001 µg/mL
[24]
  IC50 in TZM-bl assay: 0.416 µg/mL
  IC80 in TZM-bl assay: 5.71 µg/mL
[25]
  IC50 in TZM-bl assay: 0.022 µg/mL
  IC80 in TZM-bl assay: 0.07 µg/mL
[26]
  IC50 in TZM-bl assay: > 10 µg/mL
  IC80 in TZM-bl assay: > 10 µg/mL
[27]
  IC50 in TZM-bl assay: > 10 µg/mL
  IC80 in TZM-bl assay: > 10 µg/mL
[28]
  IC50 in TZM-bl assay: > 10 µg/mL
  IC80 in TZM-bl assay: > 10 µg/mL
[29]
  IC50 in TZM-bl assay: > 10 µg/mL
  IC80 in TZM-bl assay: > 10 µg/mL
[30]
  IC50 in TZM-bl assay: 0.261 µg/mL
  IC80 in TZM-bl assay: 0.678 µg/mL
[31]
  IC50 in TZM-bl assay: > 10 µg/mL
  IC80 in TZM-bl assay: > 10 µg/mL
[32]
  IC50 in TZM-bl assay: > 10 µg/mL
  IC80 in TZM-bl assay: > 10 µg/mL
[33]
  IC50 in TZM-bl assay: 0.007 µg/mL
  IC80 in TZM-bl assay: 0.022 µg/mL
[34]
  IC50 in TZM-bl assay: 0.091 µg/mL
  IC80 in TZM-bl assay: 0.38 µg/mL
[35]
  IC50 in TZM-bl assay: > 10 µg/mL
  IC80 in TZM-bl assay: > 10 µg/mL
[36]
  IC50 in TZM-bl assay: 0.616 µg/mL
  IC80 in TZM-bl assay: 2.4 µg/mL
[37]
  IC50 in TZM-bl assay: 0.013 µg/mL
  IC80 in TZM-bl assay: 0.058 µg/mL
[38]
  IC50 in TZM-bl assay: 0.019 µg/mL
  IC80 in TZM-bl assay: 0.083 µg/mL
[39]
  IC50 in TZM-bl assay: 0.018 µg/mL
[40]
  IC50 in TZM-bl assay: 0.038 µg/mL
  IC80 in TZM-bl assay: 0.168 µg/mL
[41]
  IC50 in TZM-bl assay: > 10 µg/mL
  IC80 in TZM-bl assay: > 10 µg/mL
[42]
  IC50 in TZM-bl assay: 0.005 µg/mL
